Data: article PMC8891275, “Crosstalk between CRISPR-Cas9 and the human transcriptome”

Tests used:
[1] = biological target: T1, SpCas9-NLS (CAS9PROT, Sigma-Aldrich) (UniProt Q99ZW2 1-1368); assay: competition; does not outcompete 20 nM labeled CDIP1 RNA; Cas9 640 nM; 1:1 to 1:32 to Cas9; 20 mM Tris-HCl pH 7.4, 150 mM KCl, 5 mM MgCl2, 5 mM EDTA, 1 mM DTT, 0.1% BSA, 5% glycerol, 0.01% Tween 20, 50 ug/mL heparin, 200 U/mL Superase-In; 30 min at room temperature; gel at 4 C; settings: protein: commercial; tags: NLS
T1 sequence (Q99ZW2 whole entry): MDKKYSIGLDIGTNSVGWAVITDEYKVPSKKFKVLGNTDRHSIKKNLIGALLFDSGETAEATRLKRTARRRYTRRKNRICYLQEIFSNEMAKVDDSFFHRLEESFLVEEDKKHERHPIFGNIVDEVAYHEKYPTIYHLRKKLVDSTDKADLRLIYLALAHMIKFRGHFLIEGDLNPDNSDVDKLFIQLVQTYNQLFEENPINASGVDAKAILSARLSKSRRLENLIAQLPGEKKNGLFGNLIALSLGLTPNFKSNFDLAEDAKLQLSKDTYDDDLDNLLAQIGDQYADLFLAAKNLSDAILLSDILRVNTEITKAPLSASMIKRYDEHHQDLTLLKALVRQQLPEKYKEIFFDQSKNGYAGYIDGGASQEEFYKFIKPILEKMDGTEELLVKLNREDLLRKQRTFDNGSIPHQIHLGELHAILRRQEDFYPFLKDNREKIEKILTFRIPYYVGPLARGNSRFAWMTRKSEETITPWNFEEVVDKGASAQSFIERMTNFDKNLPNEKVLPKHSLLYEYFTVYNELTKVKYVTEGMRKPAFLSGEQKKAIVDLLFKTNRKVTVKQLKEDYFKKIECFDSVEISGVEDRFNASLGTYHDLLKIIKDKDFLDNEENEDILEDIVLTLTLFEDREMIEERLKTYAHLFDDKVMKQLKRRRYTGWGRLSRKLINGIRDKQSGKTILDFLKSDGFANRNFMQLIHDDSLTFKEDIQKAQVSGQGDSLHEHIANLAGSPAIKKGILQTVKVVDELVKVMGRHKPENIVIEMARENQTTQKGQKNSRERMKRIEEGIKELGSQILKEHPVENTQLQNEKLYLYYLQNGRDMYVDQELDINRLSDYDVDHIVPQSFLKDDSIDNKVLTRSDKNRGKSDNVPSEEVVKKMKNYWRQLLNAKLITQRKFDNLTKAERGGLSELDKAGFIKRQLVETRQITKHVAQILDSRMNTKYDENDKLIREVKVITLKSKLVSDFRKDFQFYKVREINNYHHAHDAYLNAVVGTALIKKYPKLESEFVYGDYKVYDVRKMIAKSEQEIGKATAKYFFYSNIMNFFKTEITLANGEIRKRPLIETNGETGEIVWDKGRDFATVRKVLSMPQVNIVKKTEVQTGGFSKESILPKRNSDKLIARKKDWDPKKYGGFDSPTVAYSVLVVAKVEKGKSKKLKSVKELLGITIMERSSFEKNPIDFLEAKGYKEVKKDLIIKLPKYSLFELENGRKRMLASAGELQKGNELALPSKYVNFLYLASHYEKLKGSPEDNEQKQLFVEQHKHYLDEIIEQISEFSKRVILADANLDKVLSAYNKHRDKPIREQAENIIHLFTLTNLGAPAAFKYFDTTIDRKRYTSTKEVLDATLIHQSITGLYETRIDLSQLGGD

[2] = biological target: T1, SpCas9-NLS (CAS9PROT, Sigma-Aldrich); assay: competition; outcompetes 20 nM labeled CDIP1 RNA; Cas9 640 nM; 1:1 to 1:32 to Cas9; 20 mM Tris-HCl pH 7.4, 150 mM KCl, 5 mM MgCl2, 5 mM EDTA, 1 mM DTT, 0.1% BSA, 5% glycerol, 0.01% Tween 20, 50 ug/mL heparin, 200 U/mL Superase-In; 30 min at room temperature; gel at 4 C; settings: protein: commercial; tags: NLS; guide RNA hairpins
[3] = biological target: T1, SpCas9-NLS (CAS9PROT, Sigma-Aldrich); assay: EMSA; apparent Kd, high nanomolar; 20 nM RNA, Cas9 0-1000 nM; no gRNA; 20 mM Tris-HCl pH 7.4, 150 mM KCl, 5 mM MgCl2, 5 mM EDTA, 1 mM DTT, 0.1% BSA, 5% glycerol, 0.01% Tween 20, 50 ug/mL heparin, 200 U/mL Superase-In; 30 min at room temperature; gel at 4 C; settings: protein: commercial; tags: NLS; label: 5' IRDye 800CW; GU-loop upstream of 5-nt stem

B1: non-specific (N.S.) RNA, unlabeled (ssRNA)
RNA: CUAUGCGGCAUCAGAGCAGAUUGUACUGAGAGUGCACCAUAUGCGGUGUGAAAUACCGCACAGAUGCGUAAGGAGAAAAUACCGCAUCAGGCGCCAUUCGCCAUUCAGGCUGCGCAACUGUUGG
[1]
  binding result: no binding

B2: Cas9 gRNA (structured_RNA)
RNA: AUUAAUCGGUGGGAGUAUUCGUUUAAGAGCUAUGCUGGAAACAGCAUAGCAAGUUUAAAUAAGGCUAGUCCGUUAUCAACUUGAAAAAGUGGCACCGAGUCGGUGCU
[2]
  binding result: binds

B3: CDIP1 5' UTR RNA (Fig. 2) (structured_RNA)
RNA: UACCCGCCUCCUUGUGACAGAAGUGCGACUGCCAGCUGCCGAGGCGUUCGGUCCUGCUGUUGCGGCCGCUGCCCCAGGGCUGCGGGGACGGUGAGUCGACUGGA
[3]
  Kd: > 100 nM
